Biological target: Pmel-TCR (mouse)
Experiment: flow cytometry, APC-tetramer staining of FACS-sorted 293TREx-CD3-Pmel-TCR cells

Chain of APC-streptavidin tetramer of H-2D^b mouse MHC class I molecules loaded with the human gp100 peptide … (P01899 25-362): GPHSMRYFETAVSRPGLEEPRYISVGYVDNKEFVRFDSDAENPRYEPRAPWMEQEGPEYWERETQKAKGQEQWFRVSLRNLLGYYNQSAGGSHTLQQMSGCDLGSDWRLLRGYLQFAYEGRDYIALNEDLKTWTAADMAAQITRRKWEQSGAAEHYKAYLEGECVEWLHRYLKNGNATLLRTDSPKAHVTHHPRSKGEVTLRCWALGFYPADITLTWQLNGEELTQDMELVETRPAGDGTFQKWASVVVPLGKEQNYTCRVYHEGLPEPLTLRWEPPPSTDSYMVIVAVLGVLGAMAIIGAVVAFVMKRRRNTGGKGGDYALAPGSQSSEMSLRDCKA
Chain of Pmel-TCR (mouse) (TCR alpha, as listed by the source, form in doubt, chain 1 of 2): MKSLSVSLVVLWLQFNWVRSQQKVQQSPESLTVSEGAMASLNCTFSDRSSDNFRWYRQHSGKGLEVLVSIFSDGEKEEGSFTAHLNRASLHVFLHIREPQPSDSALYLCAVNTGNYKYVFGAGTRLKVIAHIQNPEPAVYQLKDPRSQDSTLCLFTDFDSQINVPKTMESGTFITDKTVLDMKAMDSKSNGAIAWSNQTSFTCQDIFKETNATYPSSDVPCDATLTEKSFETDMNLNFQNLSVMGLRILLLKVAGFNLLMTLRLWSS
Chain of Pmel-TCR (mouse) (TCR beta, as listed by the source, form in doubt, chain 2 of 2): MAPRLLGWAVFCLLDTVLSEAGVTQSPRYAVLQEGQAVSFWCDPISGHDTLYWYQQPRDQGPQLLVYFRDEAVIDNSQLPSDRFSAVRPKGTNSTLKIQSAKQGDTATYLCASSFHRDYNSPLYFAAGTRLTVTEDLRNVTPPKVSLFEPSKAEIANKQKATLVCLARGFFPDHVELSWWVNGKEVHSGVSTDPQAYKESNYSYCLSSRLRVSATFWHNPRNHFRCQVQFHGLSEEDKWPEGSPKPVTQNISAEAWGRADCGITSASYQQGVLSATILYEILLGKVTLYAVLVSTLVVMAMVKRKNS

In the case of “APC-streptavidin tetramer of H-2D^b mouse MHC class I molecules loaded with the human gp100 peptide … (from UniProt P01899 25-362) (peptide-MHC)”, the percent of cells stained with the tetramers is reported as 81.5%.
